Peptide text beside a SMILES is read from it.
Assays:
[1] = target: DQA1*0101/DQB1*0501 (Homo sapiens, UniProt P01909+P01920, A157S/A45G/A70V/C70R/D89V/E106S/E118A/E183D/E77G/F83G/G63E/H151Q/H199R/H252R/H253Q/I129T/I235V/I88M/INS77G/K197Q/L107V/L117V/L119Y/L178F/L71W/L74F/L85Q/L91A/L98M/M46L/N214S/P87R/Q116E/Q256R/Q57E/Q76K/R102G/R240Q/R75S/R78G/S102Y/S185I/S41F/S97I/T103A/T109R/T121G/T122I/T172A/T86R/V148I/V68A/V73E/Y34C/Y58G/Y62H); assay: biochemical; format: binding
[2] = target: DQA1*0501/DQB1*0201 (Homo sapiens, UniProt P01909+P01920, A45G/A70V/D89A/E106A/E77G/E98D/H199R/L107V/N214S/P84L/P87L/T103K/T109R/T172A/T60S/V78E/V99I/Y58L/Y62S/Y69I/Y79F); assay: biochemical
[3] = target: DQA1*0102/DQB1*0602 (Homo sapiens, UniProt P01909+P01920, A157G/A45G/C70R/E118A/E183D/E77G/F83G/G63E/H151Q/H199R/H252R/H253Q/I129T/I235V/I88M/INS77G/K197Q/L117V/L119F/L178F/L71W/L74F/L85Q/L91A/L98M/N214S/P87R/Q116E/Q76K/R102G/R240Q/R75S/R78G/S102Y/S185I/S41F/S97I/T121G/T122I/T172A/T86R/V229M/V68A/V73E/Y34C/Y41F/Y58L); assay: biochemical; format: binding
[4] = target: HLA-DQ DQA1*0301/DQB1*0302 (human (endogenous in EBV-transformed cell line Preiss)); assay: radioligand binding
[5] = target: HLA-DQ DQA1*0101/DQB1*0501 (human (endogenous in EBV-transformed cell line LG2)); assay: radioligand binding
[6] = target: HLA-DQ DQA1*0501/DQB1*0201 (human (endogenous in EBV-transformed cell line VAVY)); assay: radioligand binding

CC(C)C[C@H](NC(=O)[C@@H](NC(=O)[C@H](Cc1c[nH]cn1)NC(=O)[C@H](CO)NC(=O)[C@H](Cc1ccccc1)NC(=O)[C@H](CO)NC(=O)CNC(=O)CNC(=O)[C@H](CC(C)C)NC(=O)[C@H](Cc1ccc(O)cc1)NC(=O)[C@H](CCCNC(=N)N)NC(=O)[C@H](Cc1ccc(O)cc1)NC(=O)[C@H](CC(C)C)NC(=O)[C@@H]1CCCN1)C(C)C)C(=O)O
IC50 [1]: 2460 nM

CC[C@H](C)[C@H](NC(=O)[C@H](CO)NC(=O)[C@H](CCC(=O)O)NC(=O)[C@H](C)NC(=O)[C@H](CCC(=O)O)NC(=O)[C@H](CCSC)NC(=O)[C@H](CCC(N)=O)NC(=O)[C@H](CCCCN)NC(=O)[C@@H](NC(=O)[C@H](CC(=O)O)NC(=O)[C@H](CCC(=O)O)NC(=O)[C@H](CCSC)NC(=O)[C@H](C)NC(=O)[C@H](CCC(N)=O)NC(=O)[C@H](CC(=O)O)NC(=O)[C@H](CCC(=O)O)NC(=O)[C@@H](N)[C@@H](C)O)[C@@H](C)CC)C(=O)N[C@@H](CO)C(=O)O
IC50 [2]: 439 nM

CC[C@H](C)[C@H](N)C(=O)N[C@@H](CC(N)=O)C(=O)N[C@@H](CCC(=O)O)C(=O)N1CCC[C@H]1C(=O)N[C@H](C(=O)N[C@@H](C)C(=O)N[C@@H](C)C(=O)N[C@@H](C)C(=O)N[C@H](C(=O)N[C@@H](C)C(=O)N[C@@H](Cc1ccc(O)cc1)C(=O)NCC(=O)N[C@@H](CC(C)C)C(=O)N[C@@H](CC(=O)O)C(=O)N[C@@H](CCCNC(=N)N)C(=O)O)[C@@H](C)CC)[C@@H](C)O (H-INEPTAAAIAYGLDR-OH)
IC50 [3]: 6.3 nM

DCLLCAYSIEFGTNISKEHD [Gallus gallus ovomucoid peptide …]
IC50 [4]: 146 nM

TPTEKDEYCARVNH [H. sapiens B2-m peptide …]
IC50 [4]: 29500 nM

PLYRYLGGSFSHVL [C. trachomatis enolase peptide …]
IC50 [5]: 2460 nM

RMMEYGTTMVSYQPL
IC50 [4]: 185 nM

TEDQAMEDIKQMEAESIS [Bos taurus a-S1 casein peptide …]
IC50 [6]: 439 nM

KPVSKMRMATPLLMQALP [Homo sapiens Ii chain peptide …]
IC50 [6]: 30 nM

FDRSTKVIDFHYPNE
IC50 [4]: 3960 nM

Source: article PMC3307390 (Journal of Immunology (Baltimore, Md. : 1950), 2010)
